From publication PMC7008241, “Radiolabeled Cationic Peptides for Targeted Imaging of Infection” (Contrast Media & Molecular Imaging, 2019) come the findings set out here.

Structures are written as SMILES. Several values for one entry are separate records, joined by “and”; a condition that tells them apart may be missing. Equal values may be shown once. Where a SMILES comes first, the peptide text is derived from it. [ ]: non-standard residue; d: D form. The star is where a group is joined. DOTA = O=C(O)CN1CCN(CC(=O)O)CCN(CC(=O)*)CCN(CC(=O)O)CC1; X1 = CC(=O)c1ccc(OCCC*)cc1B(O)O

A short description of data set [1]: in vivo. On the set-up: species or system mice. The following applies: mouse, iv, total radioactivity. How it is done: (§1) All animal experiments were performed according to animal use protocols approved by the University of Alabama at Birmingham Institutional Animal Care and Use Committee (IACUC). Animals were housed under controlled conditions with a natural light-dark cycle. They were allowed to adapt to the housing environment for at least 48 h prior to study. Biodistribution and PET imaging studies with ^64Cu-HLys-DOTA and ^64Cu-AB1-HLys-DOTA were conducted in mice intramuscularly (IM) infected in the thigh muscle with SA and PBS as a control. Thirty-six male mice (25–30 g, 4–5 weeks old) infected with SA were used for animal studies. For each peptide, 4 mice were used for small animal PET imaging at 1, 4, and 24 h, and then sacrificed at 24 h for a post-PET biodistribution. Another set of 4 mice each was used for biodistribution studies at 1 and 4 h. A similar set of mice was used for blocking studies with ^64Cu-AB1-HLys-DOTA peptide. In order to check the specificity of ^64Cu-AB1-HLys-DOTA for Gram-positive bacteria, imaging and post-PET biodistribution studies were conducted in another set of mice (four) intramuscularly (IM) infected in the thigh muscle with PA and PBS.
(§2) Mice for infection studies were anesthetized prior to the intramuscular infection of SA or PA. Animals were immobilized with isoflurane. Bacteria cells concentrated in sterile PBS were injected into the thigh muscle and the site of injection pinched to minimize bleeding. SA or PA suspension (50 μL, 2.6–2.8 × 10^7 CFU per mouse) was intramuscularly injected into the right thigh muscle, and sterile PBS (50 μL) was injected into the left thigh muscle as control. Mice were placed back into the cages and allowed to recover with frequent monitoring to identify any sign of extreme distress. The infection was allowed to develop for 3–5 days before intravenous injection of the radiolabeled probe. The muscles on the left and right thighs were harvested, homogenized, and plated on mannitol agar plates or cultured in LB broth to verify the presence of infection. In addition, [^18F]FDG imaging was also performed in infected animal models as described in the PET imaging section below to further confirm the existence of infection in the right thigh and the absence thereof in the left thigh.
For biodistribution studies, 3.3–3.7 MBq (90–100 μCi) of ^64Cu-HLys-DOTA or ^64Cu-AB1-HLys-DOTA was injected into prewarmed tail vein of the animals under anesthesia. Animals were euthanized at 1 and 4 h after radiotracer administration (n = 4 for each tracer at each time point). At 24 h after small animal PET imaging, the mice were also euthanized for a post-PET biodistribution. In a similar set of experiment, excess of the unlabeled peptide, 150 nmol, was coinjected with the radiolabeled peptides per mouse. The organs of interest were collected, weighed, and measured for radioactivity content using a gamma counter. The data were background-corrected and decay-corrected. The biodistribution data were expressed as percentage of injected radioactive dose per gram of tissue (%ID/g) for selected organs as the mean value of four mice.

Data set [2] concerns Staphylococcus aureus (SA) infected thigh muscle. Nature of the data set: in vivo. The following applies: mouse. On the set-up: species or system mice. On the procedure: as §1, §2
(§3) Small animal PET/CT imaging studies were conducted in SA-infected and PA-infected animal models. Each radiolabeled peptide, 3.3–3.7 MBq (90–100 μCi), was administrated via tail vein injection of prewarmed mice under anesthesia. The inflammatory response caused by the infection was confirmed by intravenous injection of [^18F]FDG, 3.7 MBq (100 μCi), into mice infected on the right thigh muscle with SA or PA and on the left with PBS as control. For this small animal PET imaging, 1 and 4 h post-injection static scans were collected. Following imaging studies, the mice were sacrificed for biodistribution. Mice were allowed to recover from anesthesia until the time of imaging. Mice were anesthetized with 2‐3% isoflurane/oxygen and imaged on the small animal PET/CT scanner. Static images were collected at 1, 4, and 24 h for 15, 20, and 30 min, respectively. PET images were coregistered with CT image for anatomical colocalization. Regions of interest (ROI) were manually drawn over organs of interest with CT anatomical guidelines, and the associated radioactivity was measured using Inveon Research Workstation software. Standard uptake values (SUV) were calculated as nCi/cc × animal weight/injected dose, and comparisons in pharmacokinetics of radiolabeled peptides were assessed.

Data set [3] can be described thus: in vivo. Details: species or system mice. The following applies: mouse, iv, total radioactivity. How it is done: as §1, §2, §3
This is another data set of the same source.

In data set [4] the test system is Staphylococcus aureus (SA), ATCC 6538. Nature of the data set: Bacterial cell uptake of 64Cu-labeled peptides in Staphylococcus aureus. The class given is cell-based. The following applies: SA 0.9–1.3 × 10^7 CFU/mL in PBS pH 7.4, 37°C, 24 h, 0.925–0.999 MBq, gamma counter, triplicates, mean ± SD. From the text: (§4) All solvents and reagents were obtained from Sigma-Aldrich Company unless otherwise specified. […] Diethylenetriaminepentaacetic acid (DTPA) was purchased from Sigma (St. Louis, MO). 1,4,7,10-Tetraazacyclododecane-1,4,7,10-tetraacetic acid mono-N-hydroxysuccinimide ester (DOTA-NHS-ester) was purchased from Macrocyclics (Dallas, Texas). C18 SepPak cartridges were obtained from Waters Corporation (Milford. MA). Radiometric instant thin-layer chromatography measurements were accomplished using a TLC scanner (Bioscan AR-2000 Scanner). Reverse-phase chromatography analysis was performed on a C18 column (PA) with an infinity diode-array UV detector (Agilent, Lake Forest, CA) and a PMT/NaI remote radioactive detector (LabLogic Systems Ltd, Brandon, FL). Laura radiochromatography software (LabLogic Systems Ltd, Brandon, FL) was used to quantify chromatograms by integration. Radioactive samples were counted using a 2480 Wizard II automatic gamma counter (PerkinElmer, Downers Grove, IL). Imaging studies were done by using […] (Sofie BioSciences) [CT-80 Kvp, 5 min (approximately 100 μm), PET-Resolution ≤1 mm]. Acquired PET/CT images were analyzed with InveonTM Research Workplace (IRW) (Siemens). […] At each time point, the mixture was spun down, washed twice with PBS, and the final bacterial pellets were measured using a gamma counter to determine the percent of associated radiolabeled peptide. […]

The subject of data set [5] is Pseudomonas aeruginosa (PA), ATCC 47085. Nature of the data set: Bacterial cell uptake of 64Cu-labeled peptides in Pseudomonas aeruginosa. The data set is classed as cell-based. The following applies: PA in PBS pH 7.4, 37°C, gamma counter, triplicates, mean ± SD.
Text: as §4

[6] abbreviates: male, uptake in the control muscle.
Where [7] appears, read: male, mean SUV in the infected muscle.
Setting [8] is: male, mean SUV of the heart (blood retention).
Where [9] appears, read: male, mean SUV of the heart (dose retention).

For orientation: tissue uptake means the percentage of the injected dose found per gram of tissue. `CC(=O)c1ccc(OCCCSC[C@H](NC(=O)CNC(=O)[C@@H](CCCNC(=N)N)NC(=O)[C@@H](CC(N)=O)NC(=O)[C@@H](CCCNC(=N)N)NC(=O)[C@@H](Cc2c[nH]c3ccccc23)NC(=O)[C@@H](C)NC(=O)[C@H](NC(=O)[C@@H](Cc2c[nH]c3ccccc23)NC(=O)[C@@H](Cc2ccc(O)cc2)NC(=O)[C@@H](CCCNC(=N)N)NC(=O)CN2CCN(CC(=O)O)CCN(CC(=O)O)CCN(CC(=O)O)CC2)C(C)C)C(N)=O)cc1B(O)O` [^64Cu-AB1-HLys-DOTA, metal not drawn] ({DOTA}-[dR][dY][dW][dV][dA][dW][dR][dN][dR]GC(X1)-NH2): in the data set “in vivo [1]” (setting [6]), the tissue uptake at 1 h worked out at 2.5 ± 0.5 %ID/g, the tissue uptake at 4 h is 1.1 ± 0.4 %ID/g and the tissue uptake at 24 h worked out at 0.8 ± 0.1 %ID/g. Moreover, the tissue uptake at 24 h in the data set “in vivo [1]” stood at 0.49 ± 0.11 %ID/g. The “fold increase in accumulation (SUV) vs. ^64Cu-HLys-DOTA at the infection” value in data set [2] was 2.4-4 fold. Moreover, in the data set “in vivo [3]” (setting [7]), the SUV at 1 h is 0.7 ± 0.08 SUV, the SUV at 4 h came to 0.49 ± 0.04 SUV and the SUV at 24 h was 0.31 ± 0.01 SUV. In addition, the SUV at 1 h in the data set “in vivo [3]” (setting [8]) is 0.65 ± 0.08 SUV. Further, the SUV at 24 h in the data set “in vivo [3]” (setting [9]) came to 0.26 ± 0.04 SUV. Moreover, in the data set “in vivo [3]”, the SUV at 1 h was determined as 0.28 ± 0.1 SUV and the SUV at 4 h was 0.19 ± 0.1 SUV.
In the case of `CC(C)[C@@H](NC(=O)[C@@H](Cc1c[nH]c2ccccc12)NC(=O)[C@@H](Cc1ccc(O)cc1)NC(=O)[C@@H](CCCNC(=N)N)NC(=O)CN1CCN(CC(=O)O)CCN(CC(=O)O)CCN(CC(=O)O)CC1)C(=O)N[C@H](C)C(=O)N[C@H](Cc1c[nH]c2ccccc12)C(=O)N[C@H](CCCNC(=N)N)C(=O)N[C@H](CC(N)=O)C(=O)N[C@H](CCCNC(=N)N)C(=O)NCC(N)=O` [^64Cu-HLys-DOTA, metal not drawn] ({DOTA}-[dR][dY][dW][dV][dA][dW][dR][dN][dR]G-NH2; N-terminus and C-terminus assumed), in the data set “in vivo [1]” (setting [6]), the tissue uptake at 1 h was 0.6 ± 0.1 %ID/g and the tissue uptake at 4 h stood at 0.4 ± 0.1 %ID/g. Besides, the “bacteria cell uptake (percent of associated radiolabeled peptide)” value in data set [4] was 39.12 ± 3.27% and 39.1 ± 3.3%. Moreover, in the data set “in vivo [3]” (setting [7]), the SUV at 1 h was found to be 0.17 ± 0.06 SUV, the SUV at 4 h came to 0.16 ± 0.02 SUV and the SUV at 24 h was 0.13 ± 0.01 SUV. Besides, the SUV at 1 h in “in vivo [3]” (setting [8]) worked out at 0.25 ± 0.05 SUV. Further, in the data set “in vivo [3]” (setting [9]), the SUV at 24 h was found to be 0.21 ± 0.04 SUV. In data set [5] (5 min after incubation), the “binding to PA (cell uptake)” value is 1.9 ± 0.4%. Moreover, the “binding to PA (cell uptake)” value in data set [5] (24 h after incubation) is recorded as 5.2 ± 0.3%.
